Source: the supplement of paper PMC9112550, “Optimization of the antimicrobial peptide Bac7 by deep mutational scanning” (BMC Biology, 2022)
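Note: peptides expressed intracellularly from a pBAD plasmid library in pooled LB shake-flask culture, induced with 0.3% L-arabinose, DNA abundance read by NGS, three biological replicates, DESeq2 with apeglm shrinkage.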

The sequences below were run on Escherichia coli TOP10 (assay: shrunken log2 fold change of peptide-encoding DNA abundance (4.5 h post-induction vs induction); higher = less antimicrobial activity (less host growth inhibition)). Conditions: time post-induction: 4.5 h; library: site-saturation at positions 5, 18, 19, 20.
RRIRMRPPRLPRPRPRPFMYPRP was tested, and the “shrunken log2 fold change” value was -0.219. RRIRMRPPRLPRPRPRPFNPPRP was tested, and the “shrunken log2 fold change” value was -1.51. RRIRMRPPRLPRPRPRPFNQPRP was tested, and the “shrunken log2 fold change” value was -0.0903. In the case of RRIRMRPPRLPRPRPRPFNTPRP, the “shrunken log2 fold change” value was -0.0396. For RRIRMRPPRLPRPRPRPFPLPRP, the “shrunken log2 fold change” value was -0.0414. With RRIRMRPPRLPRPRPRPFSWPRP the “shrunken log2 fold change” value was 0.0956. RRIRMRPPRLPRPRPRPFTRPRP was tested, and the “shrunken log2 fold change” value was -0.0636. In the case of RRIRMRPPRLPRPRPRPFVGPRP, the “shrunken log2 fold change” value was 0.0187. With RRIRMRPPRLPRPRPRPFVLPRP the “shrunken log2 fold change” value was -0.691. With RRIRMRPPRLPRPRPRPFYYPRP the “shrunken log2 fold change” value was -0.527. With RRIRMRPPRLPRPRPRPGADPRP the “shrunken log2 fold change” value was 2.39. RRIRMRPPRLPRPRPRPGCCPRP was tested, and the “shrunken log2 fold change” value was 1.36. RRIRMRPPRLPRPRPRPGCQPRP was tested, and the “shrunken log2 fold change” value was 0.719. For RRIRMRPPRLPRPRPRPGDNPRP, the “shrunken log2 fold change” value was -0.00193. For RRIRMRPPRLPRPRPRPGELPRP, the “shrunken log2 fold change” value was -0.0122. With RRIRMRPPRLPRPRPRPGEPPRP the “shrunken log2 fold change” value was 0.163. In the case of RRIRMRPPRLPRPRPRPGGHPRP, the “shrunken log2 fold change” value was 0.516. RRIRMRPPRLPRPRPRPGIGPRP was tested, and the “shrunken log2 fold change” value was 0.638. For RRIRMRPPRLPRPRPRPGLWPRP, the “shrunken log2 fold change” value was 1.1. RRIRMRPPRLPRPRPRPGMWPRP was tested, and the “shrunken log2 fold change” value was 0.292. In the case of RRIRMRPPRLPRPRPRPGNAPRP, the “shrunken log2 fold change” value was 0.573. For RRIRMRPPRLPRPRPRPGNLPRP, the “shrunken log2 fold change” value was 0.0466. With RRIRMRPPRLPRPRPRPGNNPRP the “shrunken log2 fold change” value was -0.0591. In the case of RRIRMRPPRLPRPRPRPGPAPRP, the “shrunken log2 fold change” value was 1.71. In the case of RRIRMRPPRLPRPRPRPGRVPRP, the “shrunken log2 fold change” value was 0.919. With RRIRMRPPRLPRPRPRPGSDPRP the “shrunken log2 fold change” value was 1.4. For RRIRMRPPRLPRPRPRPGTNPRP, the “shrunken log2 fold change” value was 1.55. For RRIRMRPPRLPRPRPRPGVFPRP, the “shrunken log2 fold change” value was 0.858. For RRIRMRPPRLPRPRPRPGYDPRP, the “shrunken log2 fold change” value was 0.0865. In the case of RRIRMRPPRLPRPRPRPGYYPRP, the “shrunken log2 fold change” value was -0.0156. RRIRMRPPRLPRPRPRPHCEPRP was tested, and the “shrunken log2 fold change” value was -0.0828. In the case of RRIRMRPPRLPRPRPRPHDLPRP, the “shrunken log2 fold change” value was -0.0136. With RRIRMRPPRLPRPRPRPHDYPRP the “shrunken log2 fold change” value was 1.54. With RRIRMRPPRLPRPRPRPHETPRP the “shrunken log2 fold change” value was -0.00213. In the case of RRIRMRPPRLPRPRPRPHEWPRP, the “shrunken log2 fold change” value was 0.624. With RRIRMRPPRLPRPRPRPHGMPRP the “shrunken log2 fold change” value was -0.0062. RRIRMRPPRLPRPRPRPHGPPRP was tested, and the “shrunken log2 fold change” value was 0.752. With RRIRMRPPRLPRPRPRPHHWPRP the “shrunken log2 fold change” value was 0.439. For RRIRMRPPRLPRPRPRPHITPRP, the “shrunken log2 fold change” value was -0.374. With RRIRMRPPRLPRPRPRPHIVPRP the “shrunken log2 fold change” value was 0.0532. With RRIRMRPPRLPRPRPRPHKRPRP the “shrunken log2 fold change” value was 0.126. With RRIRMRPPRLPRPRPRPHKVPRP the “shrunken log2 fold change” value was 0.14. In the case of RRIRMRPPRLPRPRPRPHLMPRP, the “shrunken log2 fold change” value was 0.151. For RRIRMRPPRLPRPRPRPHLPPRP, the “shrunken log2 fold change” value was -0.00448. With RRIRMRPPRLPRPRPRPHMEPRP the “shrunken log2 fold change” value was -0.0461. With RRIRMRPPRLPRPRPRPHPIPRP the “shrunken log2 fold change” value was -0.116. With RRIRMRPPRLPRPRPRPHPLPRP the “shrunken log2 fold change” value was 0.37. In the case of RRIRMRPPRLPRPRPRPHRLPRP, the “shrunken log2 fold change” value was 0.108. For RRIRMRPPRLPRPRPRPHRRPRP, the “shrunken log2 fold change” value was 0.0631. In the case of RRIRMRPPRLPRPRPRPHSMPRP, the “shrunken log2 fold change” value was -0.0253. With RRIRMRPPRLPRPRPRPHTGPRP the “shrunken log2 fold change” value was 0.0957. RRIRMRPPRLPRPRPRPHTHPRP was tested, and the “shrunken log2 fold change” value was -0.00443. RRIRMRPPRLPRPRPRPHTRPRP was tested, and the “shrunken log2 fold change” value was 0.387. In the case of RRIRMRPPRLPRPRPRPHVHPRP, the “shrunken log2 fold change” value was 0.0308. For RRIRMRPPRLPRPRPRPHWCPRP, the “shrunken log2 fold change” value was -0.153. In the case of RRIRMRPPRLPRPRPRPHWSPRP, the “shrunken log2 fold change” value was 0.0857. RRIRMRPPRLPRPRPRPHWYPRP was tested, and the “shrunken log2 fold change” value was -0.484. In the case of RRIRMRPPRLPRPRPRPHYCPRP, the “shrunken log2 fold change” value was -0.116. RRIRMRPPRLPRPRPRPHYKPRP was tested, and the “shrunken log2 fold change” value was -0.539. With RRIRMRPPRLPRPRPRPHYTPRP the “shrunken log2 fold change” value was -0.399. For RRIRMRPPRLPRPRPRPIAIPRP, the “shrunken log2 fold change” value was 0.226. With RRIRMRPPRLPRPRPRPICEPRP the “shrunken log2 fold change” value was 0.241. With RRIRMRPPRLPRPRPRPICTPRP the “shrunken log2 fold change” value was 0.153. For RRIRMRPPRLPRPRPRPIEIPRP, the “shrunken log2 fold change” value was -0.0115. For RRIRMRPPRLPRPRPRPIFRPRP, the “shrunken log2 fold change” value was 0.185. In the case of RRIRMRPPRLPRPRPRPIGPPRP, the “shrunken log2 fold change” value was 0.069. For RRIRMRPPRLPRPRPRPIHAPRP, the “shrunken log2 fold change” value was -0.0962. RRIRMRPPRLPRPRPRPIHCPRP was tested, and the “shrunken log2 fold change” value was -0.105. RRIRMRPPRLPRPRPRPIIAPRP was tested, and the “shrunken log2 fold change” value was 0.0852. For RRIRMRPPRLPRPRPRPIIRPRP, the “shrunken log2 fold change” value was 0.0027. With RRIRMRPPRLPRPRPRPIISPRP the “shrunken log2 fold change” value was -0.0891. With RRIRMRPPRLPRPRPRPIKDPRP the “shrunken log2 fold change” value was -0.165. For RRIRMRPPRLPRPRPRPILVPRP, the “shrunken log2 fold change” value was 0.133. RRIRMRPPRLPRPRPRPIPEPRP was tested, and the “shrunken log2 fold change” value was -0.0403. For RRIRMRPPRLPRPRPRPIQDPRP, the “shrunken log2 fold change” value was -0.114.
